Assay results as given in patent US20250376498A1, “FUSION PROTEINS COMPRISING AN IMPROVED GLP-1 RECEPTOR AGONIST AND USES THEREOF” (Guangzhou Innogen Pharmaceutical Group Co., Ltd., priority 2022, published 2025).
“Also recorded” adds a separate entry of the source.

How the values were obtained:
SH-SY5Y neuronal cells = test: TNF-α-induced apoptosis in SH-SY5Y cells (western blot Bcl-2, cleaved-caspase3); type: cell-based; conditions: 60 ng/ml TNF-α, 48 hours; YN-011 10, 100, 500 nM; GABA 1, 10, 100 μM; combination 100 μM GABA + 100 nM YN-011
Method: The experimental procedure is as follows: • 1) Digest SH-SY5Y neuronal cells in a 10 cm culture dish using 0.25% trypsin and seed them into a 12-well plate. • 2) Place the culture plate in a CO2 incubator for overnight pre-culture (37° C., 5% CO2) to allow cell adhesion. • 3) Using medium containing 5% FBS, treat the cells in each well with 60 ng/ml TNF-α alone or co-treated with 10, 100, or 500 nM YN-011. Incubate the cells at 37° C. for 48 hours. Each drug treatment is performed in three replicate wells. • 4) After 48 hours, discard the supernatant, gently wash the cells once with PBS, and place the cell culture plate on ice. Add 120 μl of RIPA cell lysis buffer (Beyotime P0013B) to each well, including protease and phosphatase inhibitors, and lyse the cells for 15 minutes. • 5) Transfer the cell lysate to a 1.5 ml EP tube and centrifuge at 14,000 rpm for 30 minutes. • 6) Carefully aspirate the supernatant into a new EP tube, add 5× loading buffer containing β-mercaptoethanol, and boil the samples at 100° C. for 10 minutes to denature the proteins. • 7) Perform SDS-PAGE gel electrophoresis with 10 μg of protein loaded per lane. Position the gel vertically against the power rack in the electrophoresis tank, ensuring that the concave side of the gel faces the power rack. Two gels can share one power rack. Fix the gel and power rack in the electrophoresis tank as required. […]

INS-1 cells = test: Assessment of YN-011 activity by inducing cAMP levels in INS-1 cells; type: cell-based; conditions: YN-011 120 nM
Method: Natural GLP-1 stimulates insulin secretion from beta cells in a glucose-dependent manner. […] INS-1 cells were serum-starved and glucose-starved, then treated with different amounts of purified YN-011 in the presence of 0, 5, or 20 mM glucose as indicated.
Furthermore, the blank control (SF1) and the two samples with the […] hydroxylation levels (SF4 and SF5) were tested for the biological activity of YN-011 using the method described in Example 1. […] Thus, higher hydroxylation levels tend to increase the biological activity.

T2DM subjects = test: Phase IIa clinical trial, efficacy and safety in T2DM subjects; type: in vivo, human
Method: Key inclusion criteria for the phase IIa study: • Patients with T2DM (WHO 1999) who have not taken metformin for at least 1 week and have not taken any other oral antidiabetic drugs for at least 2 weeks. • HbA1c levels at screening: 7.0%≤HbA1c≤10.0%. • Age between 18 and 65 years at screening. • BMI ≥20 kg/m^2 and ≤40 kg/m^2.
Key exclusion criteria for the phase IIa study: • Type 1 diabetes. • Fasting C-peptide <0.81 ng/mL. • Laboratory parameters meeting one of the following criteria: alanine aminotransferase (ALT) levels ≥2.5 ×ULN, and/or aspartate aminotransferase (AST) levels ≥2.5 ×ULN, fasting triglycerides >5.6 mmol/L; estimated glomerular filtration rate (eGFR) calculated by the CKD-EPI (EPI-(Scr)) equation <45 mL/min/1.73 m^2, • Known susceptibility to familial (first-degree relatives) or personal history of type 2 multiple endocrine neoplasia or medullary thyroid carcinoma. • Uncontrolled hypertension. • Known history of pancreatitis, pancreatic cancer, or serum amylase >1.2 ×ULN, or high-risk factors for pancreatitis at screening. • Patients with uncontrolled hypothyroidism. • Suspicion of active infection. • Positive hepatitis B surface antigen (HBsAg), hepatitis C antibody (HCV-Ab), human immunodeficiency virus antibody (HIV-Ab), or Treponema pallidum antibody (TPAb). • Treatment with GLP-1 receptor agonists, DPP-4 inhibitors, or insulin in the 3 months prior to randomization. • History of grade 3-4 allergy to any protein drug as per CTCAE. • Blood donation or blood loss exceeding 450 mL in the 3 months prior to screening. • Any significant endocrine, immune, coagulation, urinary reproductive tract abnormality, or hematological disease. • Clinically significant gastric emptying disorder (e.g., gastric outlet obstruction), severe chronic gastrointestinal disease (e.g., active ulcer within 6 months), long-term use of drugs directly affecting gastrointestinal motility, or previous gastrointestinal surgery. • Any other condition that the investigator or primary physician deems unsuitable for participation in the study. […]

[1] = human, in vivo
patients with T2DM = conditions: 1 mg YN-011, 24 weeks

Molecule: NCCCC(=O)O [GABA, γ-aminobutyric acid]
- TNF-α-induced apoptosis in SH-SY5Y neuronal cells (western blot) (SH-SY5Y neuronal cells): reduces TNF-α-induced apoptosis; also recorded: reduction of TNF-α-induced apoptosis

B1: YN-011: GLP-1 fusion protein of SEQ ID NO: 7: GLP-1 (A8G, G22E, R36G), linker peptide and IgG2/Fc domain (C222S, A330S, P331S) (protein)
chain: HGEGTFTSDVSSYLEEQAAKEFIAWLVKGGGSSGAPPPSGGGGSERKSCVECPPCPAPPVAGPSVFLFPPKPKDTLMISRTPEVTCVVVDVSHEDPEVQFNWYVDGVEVHNAKTKPREEQFNSTFRVVSVLTVVHQDWLNGKEYKCKVSNKGLPSSIEKTISKTKGQPREPQVYTLPPSREEMTKNQVSLTCLVKGFYPSDIAVEWESNGQPENNYKTTPPMLDSDGSFFLYSKLTVDKSRWQQGNVFSCSVMHEALHNHYTQKSLSLSPG
- cAMP levels (INS-1 cells; 5 mM glucose, comparable to exendin-4): significantly increased
- cAMP levels (INS-1 cells; absence of glucose): maintained basal levels of cAMP
- side effects or safety risks (T2DM subjects; 1-4 mg sc): No significant side effects or safety risks
- HbA1c levels compared to placebo (T2DM subjects; multiple sc administrations, 1 mg, 3 mg or 4 mg, p<0.05): persistent improvement; also recorded: significant difference compared to the placebo
- fasting blood glucose compared to placebo (T2DM subjects; multiple sc administrations, 3 mg or 4 mg, p<0.05): statistically significant improvement; also recorded: significant difference compared to the placebo
- TNF-α-induced apoptosis in SH-SY5Y neuronal cells (western blot) (SH-SY5Y neuronal cells): significantly reduces TNF-α-induced apoptosis; also recorded: reduction of TNF-α-induced apoptosis
- half-life compared with SUPA-1, Dulaglutide and Semaglutide [1]: significantly longer half-life than Dulaglutide and Semaglutide
- plasma concentration steady state [1]: reached a steady state after the fourth dose
- median Tmax ([1]; sc): 60 to 84 h
- reduction in HbA1c levels (patients with T2DM): 1.73%
